Test system: Escherichia coli TOP10
Experiment: shrunken log2 fold change of peptide-encoding DNA abundance (4.5 h post-induction vs induction); higher = less antimicrobial activity (less host growth inhibition)
Conditions: time post-induction: 4.5 h; library: site-saturation at positions 5, 18, 19, 20
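Further: peptides expressed intracellularly from a pBAD plasmid library in pooled LB shake-flask culture, induced with 0.3% L-arabinose, DNA abundance read by NGS, three biological replicates, DESeq2 with apeglm shrinkage.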

| Sequence | shrunken log2 fold change |
| --- | --- |
| RRIRWRPPRLPRPRPRPTRWPRP | 0.573 |
| RRIRWRPPRLPRPRPRPTTDPRP | 0.449 |
| RRIRWRPPRLPRPRPRPTWAPRP | 0.369 |
| RRIRWRPPRLPRPRPRPTWYPRP | 0.27 |
| RRIRWRPPRLPRPRPRPVAGPRP | 0.524 |
| RRIRWRPPRLPRPRPRPVAQPRP | 0.386 |
| RRIRWRPPRLPRPRPRPVCVPRP | 0.193 |
| RRIRWRPPRLPRPRPRPVDIPRP | 0.101 |
| RRIRWRPPRLPRPRPRPVDMPRP | -0.0613 |
| RRIRWRPPRLPRPRPRPVEGPRP | -0.0555 |
| RRIRWRPPRLPRPRPRPVFIPRP | -0.22 |
| RRIRWRPPRLPRPRPRPVFSPRP | -0.0517 |
| RRIRWRPPRLPRPRPRPVGYPRP | 0.0334 |
| RRIRWRPPRLPRPRPRPVHQPRP | 0.194 |
| RRIRWRPPRLPRPRPRPVIRPRP | 0.0511 |
| RRIRWRPPRLPRPRPRPVKHPRP | 0.0838 |
| RRIRWRPPRLPRPRPRPVLDPRP | 0.0956 |
| RRIRWRPPRLPRPRPRPVLIPRP | -0.0326 |
| RRIRWRPPRLPRPRPRPVPPPRP | 0.372 |
| RRIRWRPPRLPRPRPRPVQNPRP | 0.316 |
| RRIRWRPPRLPRPRPRPVTAPRP | 0.138 |
| RRIRWRPPRLPRPRPRPVTCPRP | -0.00133 |
| RRIRWRPPRLPRPRPRPVVNPRP | 0.261 |
| RRIRWRPPRLPRPRPRPVVYPRP | -0.228 |
| RRIRWRPPRLPRPRPRPVWMPRP | 0.333 |

| Sequence | shrunken log2 fold change |
| --- | --- |
| RRIRWRPPRLPRPRPRPVWQPRP | 0.301 |
| RRIRWRPPRLPRPRPRPVWRPRP | 0.488 |
| RRIRWRPPRLPRPRPRPVWYPRP | -0.18 |
| RRIRWRPPRLPRPRPRPWAEPRP | 0.267 |
| RRIRWRPPRLPRPRPRPWALPRP | -0.158 |
| RRIRWRPPRLPRPRPRPWCDPRP | -0.0997 |
| RRIRWRPPRLPRPRPRPWCWPRP | 0.304 |
| RRIRWRPPRLPRPRPRPWDSPRP | -0.287 |
| RRIRWRPPRLPRPRPRPWDTPRP | 0.0106 |
| RRIRWRPPRLPRPRPRPWFPPRP | -0.0213 |
| RRIRWRPPRLPRPRPRPWFYPRP | -0.705 |
| RRIRWRPPRLPRPRPRPWGDPRP | 0.0345 |
| RRIRWRPPRLPRPRPRPWGRPRP | 0.0619 |
| RRIRWRPPRLPRPRPRPWILPRP | -0.19 |
| RRIRWRPPRLPRPRPRPWINPRP | -0.506 |
| RRIRWRPPRLPRPRPRPWNDPRP | 0.0222 |
| RRIRWRPPRLPRPRPRPWRNPRP | 0.0636 |
| RRIRWRPPRLPRPRPRPWRRPRP | 0.117 |
| RRIRWRPPRLPRPRPRPWTDPRP | -0.0932 |
| RRIRWRPPRLPRPRPRPWTSPRP | -0.0584 |
| RRIRWRPPRLPRPRPRPWVCPRP | 0.186 |
| RRIRWRPPRLPRPRPRPWVLPRP | 0.287 |
| RRIRWRPPRLPRPRPRPWWDPRP | 0.0125 |
| RRIRWRPPRLPRPRPRPWWMPRP | 0.388 |
| RRIRWRPPRLPRPRPRPYADPRP | -0.0623 |

| Sequence | shrunken log2 fold change |
| --- | --- |
| RRIRWRPPRLPRPRPRPYAYPRP | 0.0461 |
| RRIRWRPPRLPRPRPRPYCFPRP | -0.379 |
| RRIRWRPPRLPRPRPRPYCVPRP | -0.521 |
| RRIRWRPPRLPRPRPRPYDVPRP | -0.0559 |
| RRIRWRPPRLPRPRPRPYETPRP | -0.181 |
| RRIRWRPPRLPRPRPRPYGNPRP | -0.338 |
| RRIRWRPPRLPRPRPRPYHFPRP | 0.0137 |
| RRIRWRPPRLPRPRPRPYHPPRP | -1.08 |
| RRIRWRPPRLPRPRPRPYHTPRP | -0.816 |
| RRIRWRPPRLPRPRPRPYHWPRP | -0.236 |
| RRIRWRPPRLPRPRPRPYLKPRP | -0.911 |
| RRIRWRPPRLPRPRPRPYMRPRP | 0.0516 |
| RRIRWRPPRLPRPRPRPYNAPRP | -0.307 |
| RRIRWRPPRLPRPRPRPYNVPRP | -0.758 |
| RRIRWRPPRLPRPRPRPYPIPRP | 0.0625 |
| RRIRWRPPRLPRPRPRPYPSPRP | -0.0856 |
| RRIRWRPPRLPRPRPRPYQKPRP | -0.0398 |
| RRIRWRPPRLPRPRPRPYQVPRP | -0.268 |
| RRIRWRPPRLPRPRPRPYRFPRP | -0.0166 |
| RRIRWRPPRLPRPRPRPYRNPRP | -0.552 |
| RRIRWRPPRLPRPRPRPYRWPRP | -0.0731 |
| RRIRWRPPRLPRPRPRPYSKPRP | -0.492 |
| RRIRWRPPRLPRPRPRPYTIPRP | -0.606 |
| RRIRWRPPRLPRPRPRPYVGPRP | -0.157 |
| RRIRWRPPRLPRPRPRPYWKPRP | -0.123 |

| Sequence | shrunken log2 fold change |
| --- | --- |
| RRIRWRPPRLPRPRPRPYWSPRP | -0.295 |
| RRIRWRPPRLPRPRPRPYYFPRP | -0.692 |
| RRIRYRPPRLPRPRPRPAAMPRP | 1.99 |
| RRIRYRPPRLPRPRPRPAEEPRP | 0.0567 |
| RRIRYRPPRLPRPRPRPAFLPRP | -0.365 |
| RRIRYRPPRLPRPRPRPAGFPRP | -0.0806 |
| RRIRYRPPRLPRPRPRPAIWPRP | 0.0587 |
| RRIRYRPPRLPRPRPRPAKCPRP | -0.153 |
| RRIRYRPPRLPRPRPRPAKRPRP | 0.167 |
| RRIRYRPPRLPRPRPRPALMPRP | -0.226 |
| RRIRYRPPRLPRPRPRPAMFPRP | -0.229 |
| RRIRYRPPRLPRPRPRPANSPRP | -0.11 |
| RRIRYRPPRLPRPRPRPANWPRP | -0.0751 |
| RRIRYRPPRLPRPRPRPAQKPRP | -0.0925 |
| RRIRYRPPRLPRPRPRPASCPRP | -0.235 |
| RRIRYRPPRLPRPRPRPATCPRP | 0.0415 |
| RRIRYRPPRLPRPRPRPATQPRP | -0.163 |
| RRIRYRPPRLPRPRPRPAWDPRP | -0.092 |
| RRIRYRPPRLPRPRPRPAWKPRP | 0.0184 |
| RRIRYRPPRLPRPRPRPAWTPRP | -0.156 |
| RRIRYRPPRLPRPRPRPAYPPRP | -0.422 |
| RRIRYRPPRLPRPRPRPAYVPRP | -0.296 |
| RRIRYRPPRLPRPRPRPCAMPRP | 0.0865 |
| RRIRYRPPRLPRPRPRPCFFPRP | -0.619 |
| RRIRYRPPRLPRPRPRPCFMPRP | -0.675 |

| Sequence | shrunken log2 fold change |
| --- | --- |
| RRIRYRPPRLPRPRPRPCFPPRP | -1.06 |
| RRIRYRPPRLPRPRPRPCFYPRP | -0.909 |
| RRIRYRPPRLPRPRPRPCGWPRP | -0.00979 |
| RRIRYRPPRLPRPRPRPCIIPRP | -1.51 |
| RRIRYRPPRLPRPRPRPCLQPRP | -0.00663 |
| RRIRYRPPRLPRPRPRPCPFPRP | -0.0574 |
| RRIRYRPPRLPRPRPRPCQKPRP | -0.0134 |
| RRIRYRPPRLPRPRPRPCRFPRP | -0.241 |
| RRIRYRPPRLPRPRPRPCRMPRP | -0.0503 |
| RRIRYRPPRLPRPRPRPCRRPRP | -0.0474 |
| RRIRYRPPRLPRPRPRPCTSPRP | -0.679 |
| RRIRYRPPRLPRPRPRPCVWPRP | -0.0563 |
| RRIRYRPPRLPRPRPRPCWFPRP | -0.0378 |
| RRIRYRPPRLPRPRPRPCYFPRP | -1.04 |
| RRIRYRPPRLPRPRPRPDARPRP | -0.294 |
| RRIRYRPPRLPRPRPRPDCVPRP | -0.3 |
| RRIRYRPPRLPRPRPRPDDKPRP | -1.56 |
| RRIRYRPPRLPRPRPRPDFSPRP | 0.0939 |
| RRIRYRPPRLPRPRPRPDHKPRP | -0.308 |
| RRIRYRPPRLPRPRPRPDKAPRP | 0.0133 |
| RRIRYRPPRLPRPRPRPDKGPRP | -0.0723 |
| RRIRYRPPRLPRPRPRPDLCPRP | 0.0404 |
| RRIRYRPPRLPRPRPRPDLIPRP | -0.302 |
| RRIRYRPPRLPRPRPRPDLWPRP | -0.0329 |
| RRIRYRPPRLPRPRPRPDNDPRP | -0.17 |

| Sequence | shrunken log2 fold change |
| --- | --- |
| RRIRYRPPRLPRPRPRPDNIPRP | 0.0653 |
| RRIRYRPPRLPRPRPRPDPKPRP | -0.22 |
| RRIRYRPPRLPRPRPRPDPLPRP | -0.0227 |
| RRIRYRPPRLPRPRPRPDQHPRP | -0.13 |
| RRIRYRPPRLPRPRPRPDRFPRP | -0.411 |
| RRIRYRPPRLPRPRPRPDSDPRP | -0.179 |
| RRIRYRPPRLPRPRPRPDSIPRP | -0.0267 |
| RRIRYRPPRLPRPRPRPDSNPRP | -2.93 |
| RRIRYRPPRLPRPRPRPDTMPRP | -0.0156 |
| RRIRYRPPRLPRPRPRPDVTPRP | -0.00733 |
| RRIRYRPPRLPRPRPRPDWDPRP | -0.543 |
| RRIRYRPPRLPRPRPRPDWRPRP | 0.22 |
| RRIRYRPPRLPRPRPRPEAYPRP | -0.185 |
| RRIRYRPPRLPRPRPRPEGSPRP | -0.0779 |
| RRIRYRPPRLPRPRPRPEGYPRP | -0.01 |
| RRIRYRPPRLPRPRPRPEKFPRP | -0.0136 |
| RRIRYRPPRLPRPRPRPELRPRP | 0.363 |
| RRIRYRPPRLPRPRPRPEMWPRP | 0.0929 |
| RRIRYRPPRLPRPRPRPEMYPRP | -0.0203 |
| RRIRYRPPRLPRPRPRPENHPRP | -0.552 |
| RRIRYRPPRLPRPRPRPENYPRP | -0.0233 |
| RRIRYRPPRLPRPRPRPERQPRP | -0.01 |
| RRIRYRPPRLPRPRPRPETRPRP | 0.0147 |
| RRIRYRPPRLPRPRPRPEWMPRP | -0.758 |
| RRIRYRPPRLPRPRPRPEWPPRP | -0.0693 |

From the supplement of paper PMC9112550, “Optimization of the antimicrobial peptide Bac7 by deep mutational scanning” (BMC Biology, 2022)
